Reference: US20260053892A1, “Induction and Expansion of Regulatory T Cells” (Board of Regents of the University of Nebraska, priority 2022, published 2026)

What was measured:
[1] = 3 or 6 μg/kg/day, cited from earlier work
[2] = system: Tregs; assay: Treg profiles by flow cytometry in blood, lymph nodes and spleen of treated mice; type: in vivo, C57BL/6 male mice
Description: C57BL/6 male mice (5-6 weeks old) were purchased from Jackson Laboratories (Bar Harbor, ME). […] Following a period of acclimation, mice were injected intraperitoneally (i.p.) with daily GM-CSF (Group 4) (Days 0-4). […] On Day 10, the mice were sacrificed, blood was collected, and spleen and lymph nodes were harvested.
Following treatment, whole blood, lymph nodes and spleens were collected to determine T-cell profiles via flow cytometric analysis. Peripheral blood, lymph nodes, and splenocytes were fluorescently labeled using antibodies against cell surface antigens including CD3, CD4, CD25, CD8, CD19, CD127, ICOS, GITR, CD39, CD62L, CD44, GITR, and CTLA-4, and for the intracellular markers FoxP3 and STAT5. Whole blood, lymph nodes, and splenocytes were labeled with PerCP Cyanine 5.5-anti-CD3 (eBioscience/Thermo Fisher Scientific, Waltham, MA), APC-anti-CD19 (eBiosciences), PE-anti-CD25 (eBiosciences), PE-cyanine7-anti-CD4 (eBiosciences), PerCP-eFluor710-anti-CD39 (eBiosciences), Alexa Fluor™ 488-anti-CD278 (ICOS) (Biolegend, San Diego, CA), FITC-anti-CD127 (Biolegend), FITC-anti-CD44, Alexa Fluor™ 488-anti-CTLA-4, Alexa Flour™ 700-anti-GITR, FITC-anti-CD8, and PerCP Cyanine 5.5-anti-CD62L. Intracellular staining was performed following permeabilization for 45 minutes at 4° C. Cells were labeled with APC-anti-FoxP3 (eBioscience) or anti-STAT5-Pacific Blue. Samples were analyzed with an LSRII flow cytometer and FACSDiva™ Software (BD Biosciences, San Diego, CA).
All values are expressed as mean±SEM using ANOVA (mean±SEM, n=3). *=p≤0.05; **=p≤0.01; *** p≤0.001. Data were analyzed using GraphPad Prism 9.3.1 software (La Jolla, CA).

[3] = in vivo; cited from earlier work

Q: With “sargramostim: human recombinant GM-CSF (sargramostim, Leukine®)” as the molecule, how does the Treg numbers [1] read?
A: increased

Q: And the “Unified Parkinson's Disease Rating Scale (UPDRS) scores” value [1]?
A: modestly improved

Q: And the Safety and tolerability ([1]; low doses)?
A: safe and well-tolerated

B1: granulocyte-macrophage colony-stimulating factor (protein, UniProt P01587 18-141, looked up)
Granulocyte-macrophage …: APTRSPITVTRPWKHVEAIKEALNLLDDMPVTLNEEVEVVSNEFSFKKLTCVQTRLKIFEQGLRGNFTKLKGALNMTASYYQTYCPPTPETDCETQVTTYADFIDSLKTFLTDIPFECKKPGQK
notes: granulocyte-macrophage colony-stimulating factor, immunomodulatory growth factor; 0.1 mg/kg i.p. in mice
Q: For B1, which “CD4+CD25+FOXP3+ Tregs” value ([2]; blood, FIG. 4) is on record?
A: did not induce

Q: And the “CD25+CD127− Tregs” value ([2]; blood, FIG. 5)?
A: did not induce

Q: What about the “CD25+ICOS+ Tregs” value ([2]; blood, FIG. 7) of the same molecule?
A: did not significantly induce

Q: And the “CD4+CD25+ Tregs” value ([2]; lymph nodes, FIG. 2)?
A: only a mild increase

Q: And the “CD25+GITR+ Tregs” value ([2]; lymph nodes, FIG. 9)?
A: did not induce

Q: And the “CD4+CD25+FOXP3+ Tregs” value ([2]; spleen, FIG. 3)?
A: did not induce

Q: And the “CD25+CD127− Tregs” value ([2]; spleen, FIG. 6)?
A: did not induce

Q: And the “CD25+ICOS+ Tregs” value ([2]; spleen, FIG. 8)?
A: did not significantly induce

Q: And the “CD25+CD39+ Tregs” value ([2]; spleen, FIG. 10)?
A: did not induce

Q: What about the “CD25+CD62L− Tregs” value ([2]; spleen, FIG. 11) of the same molecule?
A: did not significantly induce

Q: What about the half-life [3] of the same molecule?
A: six
